Laboratory results: patent US11149086B2, “KV1.3 binding immunoglobulins” (Ablynx N.V., priority 2014, dated 2021)

Legend:
CCR7−CD45RA− T cells = type: cell-based, human
Description: The purified anti-Kv1.3 Nanobodies were characterized in a T Cell-activation assay. Human T Cells were first collected from Buffy Coat blood (from healthy volunteers, Bloodbank Gent) using RosetteSep (StemCell Technologies, #15061) followed by an enrichment on Ficoll-Paque™ PLUS (GE Healthcare #17-1440-03). CCR7−CD45RA− T cells were isolated through negative selection using biotinylated antibodies against CD45RA (BD Bioscience #624008) and CCR7 (BD Bioscence #624009) in addition to the Dynabeads Biotin Binder (Invitrogen #110.47). The purity of the population was afterwards checked with anti-CD3 (eBioscience #12-0037-73); anti-CD8 (BD Bioscience #345775); anti-CD4 (BD Bioscience #345771); anti-CD45RO (BD Bioscience #555493); anti-CD45RA (BD Bioscience #550855); anti-rat IgG (Jackson ImmunoResearch Laboratories #112-116-143); anti-CD19 (BD Bioscience #555413) and anti-Human CCR7 (R&D Systems #MAB197) labeled antibodies in flow cytometric assay.
Isolated CCR7^−CD45RA^− T Cells were then stimulated on anti-CD3 (eBioscience 16-0037-85; 540 ng/ml) coated 96-well plates at a concentration of 200 000 cells/well in absence or presence of dilution series of anti-Kv1.3 antibodies and ShK positive control (Smartox, #08SHK001). After 72 h, IFN-gamma production was measured with anti-human IFNγ antibody capture in ELISA (BD Bioscence #551221) combined with biotinylated anti-human IFNγ (BD Bioscience, #554550) and streptavidin-HRP (Dakocytomation #P0397) as detection (FIG. 11A-11B).
In addition, also CD25 expression was measured in flow cytometry, using an anti-CD25 antibody (BD Pharmingen, cat 557138) (FIG. 11C-11D). […]

human Kv1.3 = molecular target: T1, human Kv1.3 (Homo sapiens, UniProt P22001); experiment: IonWorks Quattro automated perforated patch clamp, Kv1.3-expressing CHL cells; type: cell-based; conditions: 6 to 7 min incubation
T1 construct: cell lines stably expressing the full length human Kv1.3 channel
T1 sequence (P22001 whole entry): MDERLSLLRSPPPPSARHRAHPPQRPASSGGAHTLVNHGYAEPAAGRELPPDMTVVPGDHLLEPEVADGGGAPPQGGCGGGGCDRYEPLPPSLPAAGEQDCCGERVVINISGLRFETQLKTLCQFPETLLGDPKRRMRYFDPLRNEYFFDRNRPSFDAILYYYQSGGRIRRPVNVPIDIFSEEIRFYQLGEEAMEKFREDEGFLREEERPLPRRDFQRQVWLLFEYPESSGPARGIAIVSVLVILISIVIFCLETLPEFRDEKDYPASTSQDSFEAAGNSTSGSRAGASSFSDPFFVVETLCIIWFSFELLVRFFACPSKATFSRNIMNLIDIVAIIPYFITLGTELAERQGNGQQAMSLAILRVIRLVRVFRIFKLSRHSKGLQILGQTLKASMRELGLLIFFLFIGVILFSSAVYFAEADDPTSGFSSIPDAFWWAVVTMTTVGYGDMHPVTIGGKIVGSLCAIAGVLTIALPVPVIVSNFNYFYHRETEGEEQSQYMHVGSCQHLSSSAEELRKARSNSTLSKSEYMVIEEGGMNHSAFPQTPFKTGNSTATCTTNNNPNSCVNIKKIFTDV
Description: Selected Nanobodies were electrophysiologically characterized on human Kv1.3 on the IonWorks automated perforated-Patch Clamp using Kv1.3-expressing Chinese Hamster Lung (CHL) cells. The procedure for evaluating the modulatory effect of the purified Nanobodies on human Kv1.3 via electrophysiological recordings is given below.
IonWorks Quattro (Molecular Devices) is a second-generation screening instrument that provides membrane voltage control and provides a direct electrophysiological assay for screening and characterization of compounds. It is an automated, high-throughput planar perforated patch clamp that uses a 384-well PatchPlate™ substrate.
Extracellular solution contained (in mM): 138 NaCl, 2.7 KCl, 0.9 CaCl2, 0.5 MgCl2, 8 Na2HPO4, and 1.5 KH2PO4 (pH 7.3 with NaOH, and 285-290 mOsmolar). The intracellular solution contained (in mM): 100 K-gluconate, 40 KCl, 3.2 EGTA, 5 HEPES and 3.2 MgCl2 (pH 7.3 with KOH, and 300-315 mOsmolar). These solutions were freshly made, stocked for no longer than a month at 4° C. and filtered prior to use. The selected Nanobodies were directly diluted in extracellular solution to obtain a 3 μM sample solution. […]
The basic principles of IonWorks automated patch clamp electrophysiology are described by Schroeder et al. (J Biomol Screen 8(1):50-64, 2003). […] In PPC mode, an ensemble average of the current from up to 64 cells per well was recorded. […]

B1: A019400003: monovalent anti-Kv1.3 Nanobody, family 1 (protein)
VHH: EVQLVESGGGLVQAGGSLSLSCTASGGTFRNFGMGWFRQAQGKEREFVAAISRTGGHTYYQDSVKGRFTISKDNAKNILSLQMNSLKPEDTAVYYCAARFRFGDGTYYYQRAFYDFWGQGTQVTVSS
modifications: Nanobody sequence
CCR7−CD45RA− T cells; anti-CD3 stimulation
  inhibition of T-cell stimulation (IFNγ, CD25), in words: did not block
CCR7−CD45RA− T cells; monovalent Nanobodies, plate bound anti-CD3
  IC50 (in M) CD25 read out: no effect
CCR7−CD45RA− T cells; monovalent Nanobodies, plate bound anti-CD3, 72 h
  IC50 (in M) IFNγ read out: no effect
Human Kv1.3
  effect on Kv1.3 current traces on IonWorks, in words: biphasic modulatory effect
